T1: human DC-SIGN (Homo sapiens, UniProt Q9NNX6)
T1 construct: expressed in transfected cells
T1 sequence (Q9NNX6 1-404): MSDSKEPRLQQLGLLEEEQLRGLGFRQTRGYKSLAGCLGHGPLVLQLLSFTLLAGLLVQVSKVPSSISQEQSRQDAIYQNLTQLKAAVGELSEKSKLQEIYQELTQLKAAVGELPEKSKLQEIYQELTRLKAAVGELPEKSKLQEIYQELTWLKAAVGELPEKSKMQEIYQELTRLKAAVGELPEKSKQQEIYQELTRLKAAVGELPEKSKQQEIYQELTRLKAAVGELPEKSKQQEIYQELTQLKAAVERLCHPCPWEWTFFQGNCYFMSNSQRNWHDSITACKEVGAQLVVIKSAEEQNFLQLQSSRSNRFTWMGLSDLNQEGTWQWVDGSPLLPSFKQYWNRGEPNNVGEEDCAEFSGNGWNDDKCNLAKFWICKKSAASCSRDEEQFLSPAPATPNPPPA

T2: human L-SIGN (Homo sapiens, UniProt Q9H2X3)
T2 construct: expressed in transfected cells; host or cells: K562, retroviral transduction
T2 sequence (Q9H2X3 1-399): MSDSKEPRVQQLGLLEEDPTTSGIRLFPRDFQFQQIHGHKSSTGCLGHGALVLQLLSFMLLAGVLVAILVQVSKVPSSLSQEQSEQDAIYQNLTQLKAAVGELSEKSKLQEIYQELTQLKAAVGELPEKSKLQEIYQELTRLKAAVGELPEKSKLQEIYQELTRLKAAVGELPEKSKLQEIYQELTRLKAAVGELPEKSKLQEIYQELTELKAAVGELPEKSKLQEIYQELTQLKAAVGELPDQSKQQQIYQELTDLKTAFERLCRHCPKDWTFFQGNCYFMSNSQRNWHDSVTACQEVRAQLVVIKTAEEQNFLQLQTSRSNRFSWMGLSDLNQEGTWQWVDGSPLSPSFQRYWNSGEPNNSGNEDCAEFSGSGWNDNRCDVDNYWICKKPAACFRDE


Tests used:
[1] = test system: transgenic mice expressing human DC-SIGN gene (Tg+); test: Plasma cytokine production in transgenic mice expressing human DC-SIGN (ELISA / MesoScaleDiscovery); type: in vivo, mouse
Experimental: FIGS. 5A-5E show exemplary data on DC-SIGN immunoconjugates inducing cytokine production in Tg+ mice. […] Plasma levels were analyzed by ELISA (IP-10 and IFNβ) or MesoScaleDiscovery Multiplex analysis (all other analytes). **** denotes p value of <0.0001 using an ANOVA with Tukey's test compared to Tg-2B2 hlgG1 DAPA C1 group.
Mice were bled 6 hours after dosing to collect plasma for analysis of circulating cytokine levels.

[2] = test system: CD11c+ dendritic cells of Tg+ mice; test: Dendritic cell activation in DC-SIGN Tg+ mice (spleen, flow cytometry); type: in vivo, mouse
Experimental: Spleens were harvested 24 hours post dose and analyzed by flow cytometry to look at CD11c+ dendritic cells.

human DC-SIGN [3] = target: T1, human DC-SIGN; test: FACS binding to CHO cells stably expressing human DC-SIGN; details: FACS MFI, average
Experimental: (§1) The affinity of various antibodies and ADCs to DC-SIGN and its species orthologues was determined using FACS. Purified IgGs were titrated to determine EC50 values for binding to cell surface expressed DC-SIGN.
(§2) For this purpose, human DC-SIGN expressing or cynomolgus monkey DC-SIGN expressing stable CHO cell lines or K562 expressing DC-SIGN or K562 expressing L-SIGN cell lines were checked for density and viability using VICELL (Beckman Coulter), and washed once with 4° C. PBS. Cells were stained with DAPI (0.5 ug/mL) diluted in PBS for 30 min on ice. Cells were diluted into 4° C. FACS buffer (PBS, 10 mM EDTA, 2% FBS). 125 μl of cells were seeded (10,000 cells/well) into 96-well v-bottom plates (Nunc cat#442587) and centrifuged for 4 min at 1500 rpm at 4° C. Supernatant was removed. Cells were incubated with a serial dilution of each anti-DC-SIGN antibody in FACS buffer at concentrations ranging across several logs with a top concentration no higher than 50 μg/mL for 60 minutes at 4° C. Following incubation, cells were spun down (1500 rpm, 4 min, 4° C.) and washed two times with FACS buffer. A fluorophore-conjugated anti-hFc gamma-AF-647 (Southern Biotechnology) detection antibody was added at 1:400 and samples were incubated for 1 h on ice in the dark. Following incubation, FACS buffer was added, and the cells were spun down (1500 rpm, 4 min, 4° C.) and washed two times with FACS buffer. After the final wash, cells were resuspended in Fixative Buffer (Biolegend, 420801) and 90 μl of FACS buffer followed by readout on the flow cytometry machine (BD LSRFortessa Cell Analyzer; Cat #647177). Geometric Mean fluorescence intensity (MFI) of live, single cells was calculated in Flowjo 10.4.2 and exported into Graphpad Prism7 for EC50 determination.

[4] = test system: cynomolgus monkey DC-SIGN; test: FACS binding to CHO cells stably expressing cynomolgus monkey DC-SIGN; details: FACS MFI, average
cynomolgus monkey DC-SIGN, sequence (as listed by the source): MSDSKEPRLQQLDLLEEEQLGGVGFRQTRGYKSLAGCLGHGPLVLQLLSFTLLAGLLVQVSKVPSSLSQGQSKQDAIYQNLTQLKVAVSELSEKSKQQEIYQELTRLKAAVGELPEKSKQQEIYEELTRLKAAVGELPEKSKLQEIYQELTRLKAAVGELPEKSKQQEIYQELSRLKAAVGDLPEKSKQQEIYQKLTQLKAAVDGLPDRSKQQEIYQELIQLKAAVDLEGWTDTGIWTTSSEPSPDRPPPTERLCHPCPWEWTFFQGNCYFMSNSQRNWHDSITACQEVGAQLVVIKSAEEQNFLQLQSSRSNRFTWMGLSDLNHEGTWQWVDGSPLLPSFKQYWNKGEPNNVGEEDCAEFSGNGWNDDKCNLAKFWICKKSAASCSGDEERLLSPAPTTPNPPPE
Experimental: as §1, §2
In a similar experiment the antibodies were tested for cross-reactivity using engineered isogenic matched cell line.

human DC-SIGN [5] = target: T1, human DC-SIGN; test: FACS binding to K562 cells expressing human DC-SIGN; details: FACS MFI
Experimental: as §1, §2

human L-SIGN = target: T2, human L-SIGN; test: FACS binding to K562 cells expressing human L-SIGN (selectivity); details: FACS MFI
Experimental: as §1, §2
Selectivity was assessed by measuring apparent binding affinities to isogenic cell pairs engineered to overexpress DC-SIGN as well as cell lines expressing DC-SIGN paralog L-SIGN.

| Molecule | circulating plasma IL-12p70 [1] | circulating plasma IP-10 [1] | CD86 upregulation on dendritic cells (DC activation) [2] | human DC-SIGN CHO EC50 (ug/mL) ave. (human DC-SIGN [3]) | cyno DC-SIGN CHO EC50 (ug/mL) ave. [4] | human DC-SIGN K562 EC50 (human DC-SIGN [5]) | human L-SIGN K562 EC50 (human L-SIGN) |
| --- | --- | --- | --- | --- | --- | --- | --- |
| 2B2 (DAPA) DAR2 C1 (conjugate) VH: QVQLVQSGAEVKKPGASVKVSCKASGYTFTNYGINWVRQAPGQRLEWMGYIYIGNDYTEYNERFKGRVTITSDTSASTAYMELSSLRSEDTAVYYCARLYYGSSLYSYAMDYWGQGTTVTVSS VL: DIVMTQSPLSLPVTPGEPASISCRSSKSLLHSSGNTYLYWFLQKPGQSPQLLISRMSNLASGVPDRFSGSGSGTDFTLKISRVEAEDVGVYYCMQHLEYPYTFGGGTKVEIK | induced | induced | induced DC activation |  |  |  |  |
| 958N05 S93A: optimization of sequences by removal of post-translational modifications, non-preferred sites; substitutions made by site directed mutagenesis (antibody) heavy: QVTLRESGPALVKPTQTLTLTCTFSGFSLSTSGISVSWIRQPPGKALEWLALIDWDDDKYYSTSLKTRLTISKDTSKNQVVLTMTNMDPVDTATYYCARTPSGSYGRYFDLWGRGTLVTVSSASTKGPSVFPLAPSSKSTSGGTAALGCLVKDYFPCPVTVSWNSGALTSGVHTFPAVLQSSGLYSLSSVVTVPSSSLGTQTYICNVNHKPSNTKVDKRVEPKSCDKTHTCPPCPAPELLGGPSVFLFPPKPKDTLMISRTPEVTCVVVAVSHEDPEVKFNWYVDGVEVHNAKTKPREEQYNSTYRVVSVLTVLHQDWLNGKEYKCKVSNKALAAPIEKTISKAKGQPREPQVYTLPPSREEMTKNQVSLTCLVKGFYPCDIAVEWESNGQPENNYKTTPPVLDSDGSFFLYSKLTVDKSRWQQGNVFSCSVMHEALHNHYTQKSLSLSPGK light: DIQLTQSPSTLSASVGDRVTITCRASQSISNWLAWYQQKPGKAPKLLIYKASSLESGVPSRFTGSGSGTEFTLTISSLQPDDFATYYCQQYNAYWTFGQGTKVEIKRTVAAPSVFIFPPSDEQLKSGTASVVCLLNNFYPREAKVQWKVDNALQSGNSQESVTEQDSKDSTYSLSSTLTLSKADYEKHKVYACEVTHQGLSSPVTKSFNRGEC |  |  |  | 0.13 µg/mL | 0.16 µg/mL | 0.060 µg/mL | >10 µg/mL |
| 960K03 N92Q: optimization of sequences by removal of post-translational modifications, non-preferred sites; substitutions made by site directed mutagenesis (antibody) heavy: QVTLRESGPALVKPTQTLTLTCTFSGFSLSTGGMSVSWIRQPPGKALEWLALIDWDDDKYYSTSLKTRLTISKDTSKNQLVLTMTNMDPVDTATYYCARAHSGSYFDFWGQGTLVTVSSASTKGPSVFPLAPSSKSTSGGTAALGCLVKDYFPCPVTVSWNSGALTSGVHTFPAVLQSSGLYSLSSVVTVPSSSLGTQTYICNVNHKPSNTKVDKRVEPKSCDKTHTCPPCPAPELLGGPSVFLFPPKPKDTLMISRTPEVTCVVVAVSHEDPEVKFNWYVDGVEVHNAKTKPREEQYNSTYRVVSVLTVLHQDWLNGKEYKCKVSNKALAAPIEKTISKAKGQPREPQVYTLPPSREEMTKNQVSLTCLVKGFYPCDIAVEWESNGQPENNYKTTPPVLDSDGSFFLYSKLTVDKSRWQQGNVFSCSVMHEALHNHYTQKSLSLSPGK light: DIQMTQSPSTLSASVGDRVTITCRASQRISNWLAWYQQKPGKAPKLLIYKASSLESGVPSRFSGSGSGTEFTLTISSLQPDDFATYYCQQFQSYWTFGQGTKVEIKRTVAAPSVFIFPPSDEQLKSGTASVVCLLNNFYPREAKVQWKVDNALQSGNSQESVTEQDSKDSTYSLSSTLTLSKADYEKHKVYACEVTHQGLSSPVTKSFNRGEC |  |  |  | 0.08 µg/mL | 0.04 µg/mL | 0.021 µg/mL | >10 µg/mL |

— patent publication US20210170043A1, “DC-SIGN ANTIBODY CONJUGATES COMPRISING STING AGONISTS” (NOVARTIS AG, priority 2018, published 2021)
